# Molecular target: T1, human CD137 expressed on the surface of CHO cells (human, UniProt Q07011 24-255)
# T1 construct: Also used for the Jurkat reporter cells that express human CD137 (functional rows); also called CHO human CD137 cells; CHO huCD137
# Experiment: FMAT ligand inhibition, CD137 Ligand on CHO human CD137 cells
# Method: In parallel to the binding assay, periplasmic extracts were tested for their ability to inhibit the interaction of human CD137 ligand protein with CHO human CD137 cells in an FMAT format. Total binding controls containing diluted periplasmic extract sample buffer and non-specific binding controls containing excess non-Fc tagged competitor were set up on each plate for data normalisation. Fluorescence signal was measured using the TTP Mirrorball and the FL2 median mean fluorescence intensity of gated used for the data normalisation. The data was expressed as a % of the total binding control (% control) after subtraction of the background signal determined from the non-specific binding control wells.
# The ability of purified Humabody VH to inhibit the binding of CD137 Ligand to CHO human CD137 cells was measured in the FMAT ligand inhibition assay essentially as described in Example 6. VH inhibited the binding of human CD137 Ligand to human CD137.
# T1 sequence (Q07011 24-255 limits assumed): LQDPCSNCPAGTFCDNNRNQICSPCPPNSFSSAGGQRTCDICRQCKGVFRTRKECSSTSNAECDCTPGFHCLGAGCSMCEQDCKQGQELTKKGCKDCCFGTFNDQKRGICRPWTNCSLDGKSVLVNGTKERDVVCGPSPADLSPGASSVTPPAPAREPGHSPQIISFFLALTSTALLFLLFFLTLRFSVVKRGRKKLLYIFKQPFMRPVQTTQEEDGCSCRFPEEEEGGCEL
row,Binder,IC50
1,"4.1-6GS-1.78 (bispecific antibody, built from its printed name (4.1, 6GS linker, 1.78); not shown: His tag) EVQLVESGGGVVQPGRSLRLSCAASGFSFSGYGMHWVRQAPGKGLEWVAYISYDGSNKYYADSVKGRFTISRDNSKNTLYLQMNSLRAEDTAVYYCAKDPAWGLRLGESSSYDFDIWGQGTMVTVSSGGGGSGGGGSGGGGSGGGGSGGGGSGGGGSQVQLVESGGGLVQPGGSLRLSCAATGFTLSNYWMNWVRQAPGKGLEWVANINQDGSERYYVDSVKGRFTISRDNAKNSLYLQMSSLRAEDTAVYFCARGGEGYGVDHYGLDVSGQGTTVTVSS",3.7 nM
2,"2.1-6GS-2.1-6GS-2.1 (VHH, trivalent tandem VH, monospecific for CD137; also called trivalent Humabody VH 2.1; not shown: His tag) EVQLVESGGGLVKPGGSLRVSCAASGFTFSDYYMSWFRQAPGKGLEWVSYISGSGDIIDYADSVKGRFTISRDNAKNSLYLQMNNLRAEDTAVYHCAREDSRLTGTTDFDNWGQGTLVTVSSGGGGSGGGGSGGGGSGGGGSGGGGSGGGGSEVQLVESGGGLVKPGGSLRVSCAASGFTFSDYYMSWFRQAPGKGLEWVSYISGSGDIIDYADSVKGRFTISRDNAKNSLYLQMNNLRAEDTAVYHCAREDSRLTGTTDFDNWGQGTLVTVSSGGGGSGGGGSGGGGSGGGGSGGGGSGGGGSEVQLVESGGGLVKPGGSLRVSCAASGFTFSDYYMSWFRQAPGKGLEWVSYISGSGDIIDYADSVKGRFTISRDNAKNSLYLQMNNLRAEDTAVYHCAREDSRLTGTTDFDNWGQGTLVTVSS",0.42 nM
3,"1.1-6GS-1.1-6GS-1.1 (VHH, trivalent tandem VH, monospecific for CD137; also called trivalent Humabody VH 1.1; not shown: His tag) EVQLVESGGGLVQPGGSLRLSCAASGFTFSSHWMTWFRQAPGKGLEWVAHIKEDGSEKYYEDSVEGRFTVSRDNAKNSVYLQMNSLRAEDTAVYYCARGGDGYSDSHFGVDVWGQGTTVTVSSGGGGSGGGGSGGGGSGGGGSGGGGSGGGGSEVQLVESGGGLVQPGGSLRLSCAASGFTFSSHWMTWFRQAPGKGLEWVAHIKEDGSEKYYEDSVEGRFTVSRDNAKNSVYLQMNSLRAEDTAVYYCARGGDGYSDSHFGVDVWGQGTTVTVSSGGGGSGGGGSGGGGSGGGGSGGGGSGGGGSEVQLVESGGGLVQPGGSLRLSCAASGFTFSSHWMTWFRQAPGKGLEWVAHIKEDGSEKYYEDSVEGRFTVSRDNAKNSVYLQMNSLRAEDTAVYYCARGGDGYSDSHFGVDVWGQGTTVTVSS",0.2 nM
4,"Humabody VH 1.109 (VHH, human single VH domain) VHH: EVQLVESGGGLVQPGGSLRLSCAATGFTLSNYWMNWVRQAPGKGLEWVANINQDGSERYYVDSVKGRFTISRDNAKNSLYLQMSSLRAEDTAVYYCARGGEGYGVDHYGLDVSGQGTTVTVSS",0.9 nM
5,"Humabody VH 1.112 (VHH, human single VH domain) VHH: EVQLVESGGGLVQPGGSLRLSCAATGFTLSNYWMNWVRQAPGKGLEWVANINQDGSERYYVDSVKGRFTISRDNAKNSLYLQMNSLRAEDTAVYYCARGGEGYGVDHYGLDVSGQGTTVTVSS",0.47 nM
6,"Humabody VH 1.107 (VHH, human single VH domain) VHH: EVQLVESGGGLVQPGGSLRLSCAASGFTLSNYWMNWVRQAPGKGLEWVANINQDGSERYYVDSVKGRFTISRDNAKNSLYLQMSSLRAEDTAVYFCARGGEGYGVDHYGLDVSGQGTTVTVSS",0.55 nM
7,"Humabody VH 1.111 (VHH, human single VH domain) VHH: EVQLVESGGGLVQPGGSLRLSCAASGFTLSNYWMNWVRQAPGKGLEWVANINQDGSERYYVDSVKGRFTISRDNAKNSLYLQMSSLRAEDTAVYYCARGGEGYGVDHYGLDVSGQGTTVTVSS",0.75 nM
8,"Humabody VH 1.110 (VHH, human single VH domain) VHH: EVQLVESGGGLVQPGGSLRLSCAASGFTLSNYWMNWVRQAPGKGLEWVANINQDGSERYYVDSVKGRFTISRDNAKNSLYLQMNSLRAEDTAVYFCARGGEGYGVDHYGLDVSGQGTTVTVSS",0.81 nM
9,"Humabody VH 1.108 (VHH, human single VH domain) VHH: EVQLVESGGGLVQPGGSLRLSCAATGFTLSNYWMNWVRQAPGKGLEWVANINQDGSERYYVDSVKGRFTISRDNAKNSLYLQMNSLRAEDTAVYFCARGGEGYGVDHYGLDVSGQGTTVTVSS",0.5 nM
10,"Humabody VH 1.114 (VHH, human single VH domain) VHH: EVQLVESGGGLVQPGGSLRLSCAASGFTLSNYWMNWVRQAPGKGLEWVANINQDESERYYVDSVKGRFTISRDNAKNSLYLQMNSLRAEDTAVYYCARGGEGYGVDHYGLDVSGQGTTVTVSS",0.27 nM
11,"1.78-6GS-4.1 (bispecific antibody, built from its printed name (1.78, 6GS linker, 4.1); not shown: His tag) QVQLVESGGGLVQPGGSLRLSCAATGFTLSNYWMNWVRQAPGKGLEWVANINQDGSERYYVDSVKGRFTISRDNAKNSLYLQMSSLRAEDTAVYFCARGGEGYGVDHYGLDVSGQGTTVTVSSGGGGSGGGGSGGGGSGGGGSGGGGSGGGGSEVQLVESGGGVVQPGRSLRLSCAASGFSFSGYGMHWVRQAPGKGLEWVAYISYDGSNKYYADSVKGRFTISRDNSKNTLYLQMNSLRAEDTAVYYCAKDPAWGLRLGESSSYDFDIWGQGTMVTVSS",2.8 nM
12,"Humabody VH 2.50 (VHH, human single VH domain) VHH: EVQLVESGGGLVKPGGSLRLSCAASGFTFSDYYMSWFRQAPGKGLEWVSYISGSGDIIDYADSVKGRFTISRDNAKNSLYLQMNSLRAEDTAVYYCAREDARLTGTTDFDNWGQGTLVTVSS",14 nM
13,"Humabody VH 2.51 (VHH, human single VH domain) VHH: EVQLVESGGGLVKPGGSLRLSCAASGFTFSDYYMSWFRQAPGKGLEWVSYISGSGDIIDYADSVKGRFTISRDNAKNSLYLQMNSLRAEDTAVYYCAREDPRLTGTTDFDNWGQGTLVTVSS",27 nM
14,"Humabody VH 2.20 (VHH, human single VH domain) VHH: EVQLVESGGGLVKPGGSLRLSCAASGFTFSDYYMSWIRQAPGKGLEWVSHISSSGSTIDYADSVKGRFTISRDNAKNSLYLQMNSLRAEDTAVYYCAREDPRMPGTFDFDNWGQGTLVTVSS",1.7 nM
15,"2.1-6GS-2.1 (VHH, bivalent tandem VH, monospecific for CD137; also called bivalent Humabody VH 2.1; not shown: His tag) EVQLVESGGGLVKPGGSLRVSCAASGFTFSDYYMSWFRQAPGKGLEWVSYISGSGDIIDYADSVKGRFTISRDNAKNSLYLQMNNLRAEDTAVYHCAREDSRLTGTTDFDNWGQGTLVTVSSGGGGSGGGGSGGGGSGGGGSGGGGSGGGGSEVQLVESGGGLVKPGGSLRVSCAASGFTFSDYYMSWFRQAPGKGLEWVSYISGSGDIIDYADSVKGRFTISRDNAKNSLYLQMNNLRAEDTAVYHCAREDSRLTGTTDFDNWGQGTLVTVSS",0.43 nM
16,"1.1-6GS-1.1 (VHH, bivalent tandem VH, monospecific for CD137; also called bivalent Humabody VH 1.1; not shown: His tag) EVQLVESGGGLVQPGGSLRLSCAASGFTFSSHWMTWFRQAPGKGLEWVAHIKEDGSEKYYEDSVEGRFTVSRDNAKNSVYLQMNSLRAEDTAVYYCARGGDGYSDSHFGVDVWGQGTTVTVSSGGGGSGGGGSGGGGSGGGGSGGGGSGGGGSEVQLVESGGGLVQPGGSLRLSCAASGFTFSSHWMTWFRQAPGKGLEWVAHIKEDGSEKYYEDSVEGRFTVSRDNAKNSVYLQMNSLRAEDTAVYYCARGGDGYSDSHFGVDVWGQGTTVTVSS",0.28 nM

# Molecular target: T2, human CD137-human Fc chimeric protein (Acro Biosystems cat no. 41B-H5258) (human, UniProt Q07011 24-186)
# T2 construct: Bought protein; The Octet Protein G and Biacore experiments name no catalogue number; also called human CD137Fc recombinant protein; human CD137-Fc recombinant protein; not shown: human IgG1 Fc tag
# Experiment: BLI (Octet RED384), CD137-Fc on Protein G sensors, 1:1 model
# Method: Binding kinetics of purified VH, bivalent VH and trivalent VH molecules were measured on a ForteBio Octet RED 384 instrument. CD137-Fc tagged protein was diluted to 3 μg/ml in kinetics buffer (0.1% BSA, 0.02% Tween, 1×PBS) and coupled to Protein G biosensors (ForteBio cat no. 18-5082) via the Fc tag. VH were serially diluted (typically 1:2 dilution series starting with 50 nM, VH at the highest concentration) and binding to the CD137-Fc-coupled Protein G biosensors measured. Binding kinetics were determined from the (blank subtracted) sensor gram trace using 1:1 binding models and ForteBio Octet Data Analysis 9.0 software. Example kinetic and binding affinity data obtained is shown Table 10 (monovalent VH) and FIG. 1 (bivalent and trivalent molecules).
Binder,Kd,koff,kon
"Humabody VH 1.39 (VHH, human single VH domain) VHH: EVQLVESGGGLVQPGGSLRLSCAASGFTFSNYWMNWVRQAPGKELEWVANINQDESEKYYVDSVKGRFTVSRDNAKNSLFLQMNSLRADDTAVYYCARGGFGYGDSHFGMDVWGQGTTVTVSS",0.9 nM,0.000505 s⁻¹,559000 M⁻¹ s⁻¹
"Humabody VH 1.63 (VHH, human single VH domain) VHH: EVQLVESGGGLVQPGGSLSLSCAASGFTFRSFWMNWVRQAPGKEAEWVANINQDGSEKYYVDSVKGRFTISRDNAKNSLFLQMNSLRAEDTAVYYCARGGPDYGDLHYGMDVWGQGTTVTVSS",2.8 nM,0.000596 s⁻¹,217000 M⁻¹ s⁻¹
"Humabody VH 1.16 (VHH, human single VH domain) VHH: EVQLVESGGGLVQPGGSLRLSCVASGFTFSNYWMMWFRQAPGKGLEWVANINQDGSEKYFVDSVEGRFTISRDNAKNSLYLQMNSLRAEDTAVYYCARGGDGYSSSHYGTDVWGQGTTVTVSS",2.4 nM,0.00145 s⁻¹,610000 M⁻¹ s⁻¹
"Humabody VH 1.75 (VHH, human single VH domain) VHH: QVQLVESGGGLVQPGGSLRLSCAASGFTFSDYYMSWIRQAPGKGLEWVANINQDGSERYYVDSVKGRFTISRDNAKNSLYLQMSSLRAEDTAVYFCARGGEGYGVDHYGLDVSGQGTTVTVSS",0.75 nM,0.000353 s⁻¹,474000 M⁻¹ s⁻¹
"Humabody VH 1.81 (VHH, human single VH domain) VHH: QVQLVESGGGLVQPGGSLRLSCAATGFTLSNYWMNWVRQAPGKGLEWVANINQDGSERYYVDSVEGRFTISRDNAKSSLYLQMSNLRAEDTAVYFCARGGEGYGVDHYGLDVSGQGTTVTVSS",0.16 nM,0.000171 s⁻¹,1.06e+06 M⁻¹ s⁻¹
"Humabody VH 2.20 (VHH, human single VH domain) VHH: EVQLVESGGGLVKPGGSLRLSCAASGFTFSDYYMSWIRQAPGKGLEWVSHISSSGSTIDYADSVKGRFTISRDNAKNSLYLQMNSLRAEDTAVYYCAREDPRMPGTFDFDNWGQGTLVTVSS",1.2 nM,0.002 s⁻¹,1.64e+06 M⁻¹ s⁻¹
"Humabody VH 1.71 (VHH, human single VH domain) VHH: EVQLVESGGGLVQPGGSLRLSCAASGFTFGNYWMIWVRQAPGKELEWLANINQNGSERYYVDSVQGRFTISRDNAKNSLYLQMNSLRAEDTAVYYCARGGADYSNSHYGMDVSGQGTTVTVSS",0.091 nM,2.84e-05 s⁻¹,313000 M⁻¹ s⁻¹

# Reference: US20200362047A1 (CRESCENDO BIOLOGICS, published 2020)
